# Where a SMILES comes first, the peptide text is derived from it.
# B1: NGF: purified from male mouse submaxillary gland; β-NGF is a dimer of two identical 118 amino acid chains (protein, UniProt P01139 122-241, looked up)
# Beta-nerve growth factor: SSTHPVFHMGEFSVCDSVSVWVGDKTTATDIKGKEVTVLAEVNINNSVFRQYFFETKCRASNPVESGCRGIDSKHWNSYCTTTHTFVKALTTDEKQAAWRFIRIDTACVCVLSRKATRRG
# modifications: beta-NGF
# notes: purified from male mouse submaxillary gland; β-NGF is a dimer of two identical 118 amino acid chains
# B2: NGF denatured by reduction and carbamoylmethylation: NGF (30 μg) denatured by reduction and carbamoylmethylation, used as control (protein, UniProt P01139 122-241, looked up)
# Beta-nerve growth factor: B1 Beta-nerve growth factor
# modifications: beta-NGF reduced and carbamoylmethylated (denatured)
# notes: NGF (30 μg) denatured by reduction and carbamoylmethylation, used as control
# Columns and labels:
# [1] = Resistance to proteolysis during cell culture; assay type: in vitro ADME; conditions: 2.0 μmole/ml in culture medium with cells and 100 pg/ml NGF, 24 hr, HPLC
# Method: The resistance of peptide C5 to proteolytic cleavage during cell culture was assessed. Quadruplicate wells were prepared each containing 2.0 μmole/ml of peptide in culture medium, 100 pg/ml NGF and cells as described above. After 24 hr in culture, 320 ul (4 wells×80 ul) of culture medium were collected. Fresh culture medium containing 2.0 μmole/ml of peptide was also prepared. Both samples of peptide-containing medium were filtered through a Centricon membrane (Amicon, Bedford) with a molecular weight cutoff of 10,000. 250 μl of filtrate was loaded onto a C18 uBondapak analytic HPLC column and run under the same conditions described above for peptide purification. The quantity of peptides in fresh compared to post-culture medium was determined by integration of their absorbance peaks. After 24 hr in culture, more than 80-85% of the initial quantity of peptide C5 was recovered..
# [2] = system: embryologic day 10 dorsal root ganglia neurons; assay: Nonspecific toxicity: NGF-independent neurite outgrowth in response to CNTF; assay type: cell-based, chick; conditions: up to 2.6 μmoles/ml, FIG. 3
# Method: Potential nonspecific toxicity of peptide C5 (KGKE) was investigated with embryologic day 10 dorsal root ganglia neurons which also extend neurites in the presence of ciliary neurotrophic factor (CNTF) The effect of peptide C5 on NGF-independent neurite outgrowth was assessed.
# PrP mRNA = conditions: hamster, in vivo
# PrP = conditions: hamster, in vivo
# [3] = system: dissociated embryonic chick dorsal root ganglia neurons; assay: NGF bioassay: support of neurite outgrowth/neuronal survival without NGF (agonist activity); assay type: cell-based; conditions: 24 hr culture
# Excerpt: After synthesis, the peptides of the present invention may then be assayed to determine their activity in the NGF bioassay using dissociated embryonic chick dorsal root ganglia neurons according to published procedures, such as, for example, Riopelle et al, (1981) J Neurobiol 12:175-186 or Varon et al (1981) Dev Brain Res 1:73-87. […] If the peptide of interest is capable of inhibiting neuronal attachment, survival or neurite outgrowth in the presence of NGF, the peptide is defined as an antagonist. Similarly, if the peptide is capable of supporting neuronal attachment, survival or neurite outgrowth in the absence of NGF, it is defined as an agonist.
# NGF bioassays using dissociated embryonic chick dorsal root ganglia neurons have been described (Varon et al, (1981) Dev Brain Res 1:73-87); Riopelle et al, (1981) J Neurobiol 12:175-186). Approximately 30 dorsal root ganglia were dissected from each developmental day 8 chick embryo. […] During this incubation, non-neurons more readily attach to the substratum; therefore, the resulting supernatant contained a relatively enriched neuronal population (80-90% neurons). […]
# The results obtained were similar in each experiment; FIG. 1A represents the data obtained from the second experiment. […] Neurite outgrowth was assessed by phase contrast microscopy. The number of neurite-bearing cells in a fixed area of the well was counted. […]
# β-PP mRNA = assay: β-protein precursor mRNA levels after NGF injection in neonatal hamsters; assay type: in vivo, hamster
# ChAT activity = ChAT activity in brain regions after intraventricular NGF in neonatal hamsters; assay type: in vivo, hamster; conditions: for increase in septal ChAT activity relative to vehicle-injected animals: single 30 μg injection PD 7, sacrifice PD 9
# Method: The birth of hamster litters was recorded as day zero. Hamsters were sacrificed at various postnatal ages and several brain regions were quickly dissected. The regions sampled included septum (basal forebrain), caudate-putamen, thalamus, hippocampus, frontolateral neocortex, and brainstem. Dissections were performed as described (Johnston et al, (1987) Neurochem Res 12:985-994). Subiculum was included with hippocampus. Caudal midbrain plus pons constituted the brainstem. For prenatal determinations,a timed-pregnancy animal was anesthetized with Nembutal (15 mg, i.p.) and individual embryos were removed and dissected. Whole forebrain was taken in place of frontolateral neocortex in prenatal animals. ChAT activity was determined in selected tissues as described (Mobley et al, (1985) Science 229:284-287).
# NGF was prepared by ion-exchange chromatography and characterized as described in the first example. In experiments in which multiple injections were given, NGF (30 μg) was administered intraventricularly (Mobley et al, (1985) supra) on postnatal day (PD) 3, 5 and 7 and sacrifice was on PD 9. Vehicle-injected animals served as controls. In experiments in which a single injection was given, NGF (30 μg) was administered intraventricularly on PD 7 and animals were sacrificed on PD 9. Controls included animals treated with NGF (30 μg) denatured by reduction and carbamoylmethylation (Morris et al, (1971) Neurobiology 1:64-67), or injection vehicle alone.
Molecule,initial quantity of peptide recovered after culture [1],effect on number of neurons bearing neurites in response to CNTF [2],effect on PrP mRNA levels in hippocampus (PrP mRNA),effect on PrP mRNA levels in thalamus (PrP mRNA),increase in PrP mRNA in caudate-putamen relative to vehicle-injected animals (PrP mRNA),increase in septal PrP mRNA levels (PrP mRNA),increase in septal PrP mRNA relative to controls (PrP mRNA),increase in PrP in septum (Western blot) (PrP),concentration giving maximum neurite outgrowth [3],"increase in β-PP mRNA levels relative to vehicle-injected animals (β-PP mRNA; single treatment on PD7, septum)","increase in β-PP in thalamus (β-PP mRNA; single treatment, FIG. 6)","increase in septal ChAT activity (ChAT activity; 30 μg intraventricularly PD 3, 5, 7, sacrifice PD 9, FIG. 5A)",increase in septal ChAT activity relative to vehicle-injected animals (ChAT activity),"septal ChAT activity (mean±SEM) (ChAT activity; single 30 μg injection PD 7, sacrifice PD 9, n=4)","ChAT activity in caudate-putamen (ChAT activity; single injection, n=3)","increase in ChAT activity in caudate-putamen (ChAT activity; single injection, neonatal hamsters)"
"NCCCC[C@H](NC(=O)CNC(=O)[C@@H](N)CCCCN)C(=O)N[C@@H](CCC(=O)O)C(N)=O [C5, KGKE-NH2] (H-KGKE-NH2)",80-85%,no detectable effect,,,,,,,,,,,,,,
B1,,,no effect,no effect,70%,~9 fold,approximately 10 fold,3.3 fold,approximately 800 pg/ml,4 fold,no increase,increased almost two-fold,100%,44.0±5.0 nmol acetylcholine (ACh) formed/hr/mg protein,92.4±6.3 nmol acetylcholine (ACh) forme,approximately 65%
B2,,,,,,No increase,,,,,,,No increase,,,

# — patent US5134121A, “Nerve growth factor peptides” (Regents of the University of California, priority 1991, dated 1992)
